# Laboratory results: PMC6050298, “Highly active enzymes by automated combinatorial backbone assembly and sequence design” (Nature Communications, 2018)
# B1: xyl3.1 (synthetic construct) (protein)
# chain: TIGSEFKPHISALNAPSLAQRYKDYFYIGAAVEPYQTTKEKDAKMLQRHFNMIVAENAMKPAALEPTEGNFQWADADRIVQFAKENGMELRFHTLVWHNQTPDWFFLDREGKPMVEETDPQKREENRELLLQRLENHIRAVVLRYKDDIKNWDVVNEVVEPNDPGGMRNSPWYQITGTEYIEVAFRAAREAGGEDIKLYMNDYNTEQEPKREYIYRLIKKLLEKGVPIDGVGHQAHVTIDRPPVDEIKKTIQRFADLGLDNQITELDVSLYGWPPRPAYPTYDAIPEERFQAQADRYRQLFELFEELKDHISAVTFWGIADNHTWLDDRAREYNDGVGKDAPFVFDPNYRVKPAYWAIINHK
# notes: computational design (105 mutations to nearest natural protein), N-terminal His6-MBP fusion kept in assay
# B2: Xylanase from Geobacillus stearothermophilus (PDB ID: 4PUD) (Geobacillus stearothermophilus) (protein)
# chain: KPHISALNAPQLDQRYKNEFTIGAAVEPYQLQNEKDVQMLKRHFNSIVAENVMKPISIQPEEGKFNFEQADRIVKFAKANGMDIRFHTLVWHSQVPQWFFLDKEGKPMVNETDPVKREQNKQLLLKRLETHIKTIVERYKDDIKYWDVVNEVVGDDGKLRNSPWYQIAGIDYIKVAFQAARKYGGDNIKLYMNDYNTEVEPKRTALYNLVKQLKEEGVPIDGIGHQSHIQIGWPSEAEIEKTINMFAALGLDNQITELDVSMYGWPPRAYPTYDAIPKQKFLDQAARYDRLFKLYEKLSDKISNVTFWGIADNHTWLDSRADVYYDANGNVVVDPNAPYAKVEKGKGKDAPFVFGPDYKVKPAYWAIIDHK
# notes: synthetic codon-optimised gene, N-terminal His6-MBP fusion kept in assay, E. coli BL21 DE3; monomer; 4PUD names the template structure
# How the values were obtained:
# purified protein [1] = substrate: O=[N+]([O-])c1ccc(O[C@@H]2OC[C@@H](O[C@@H]3OC[C@@H](O)[C@H](O)[C@H]3O)[C@H](O)[C@H]2O)cc1; test: purified protein; format: biochemical, synthetic construct; conditions: 37 °C, 50 mM Tris pH 6.5, 150 mM NaCl, MBP fusion
# purified protein [2] = substrate: O=[N+]([O-])c1ccc(O[C@@H]2OC[C@@H](O[C@@H]3OC[C@@H](O)[C@H](O)[C@H]3O)[C@H](O)[C@H]2O)cc1; test: purified protein; format: biochemical, Geobacillus stearothermophilus; conditions: 37 °C, 50 mM Tris pH 6.5, 150 mM NaCl, MBP fusion
Protein,Km (purified protein [1]),kcat (purified protein [1]),Km (purified protein [2]),kcat (purified protein [2])
B1,1.82 ± 0.6 mM,17 ± 5 s⁻¹,–,–
B2,–,–,0.16 ± 0.02 mM,6.47 ± 0.04 s⁻¹
